Experimental data from article PMC7045587.
“Also recorded” adds a separate entry of the source.

B1: CTendo45: L47T (protein)
parent chain: MHLSQLALPLLLAAGAHAQGAQGTGRTTRYWDCCKPSCAWPGKSNALQPVQTCNAQDQPLNDGGNTRSGCDSGGSAFMCSNQSPWALNETLSYGWAAVRIAGQSEFNWCCACYELTFTSGPVAGKKMIVQATNTGGDLGSNHFDIAIPGGGVGIFNACTQQYGAPPNGWGERYGGIRSRSECDSFPEALKAGCYWRFDWFLGADNPDVSFKQVACPAAITAKSKCVRQRDVIDQTPTGPEIVPTWTP
B2: CTendo45: Q56T (protein)
parent chain: B1 parent chain
B3: CTendo45: G63T (protein)
parent chain: B1 parent chain
B4: CTendo45: R67S (protein)
parent chain: B1 parent chain
B5: CTendo45: F143T (protein)
parent chain: B1 parent chain
B6: CTendo45: F143S (protein)
parent chain: B1 parent chain
B7: CTendo45: W169S (protein)
parent chain: B1 parent chain
B8: CTendo45: T90A (protein)
parent chain: B1 parent chain

Experiment: protein yield after purification from P. pastoris
Conditions: glycan gained; control: wild type
For B1, the expression_or_secretion was “no change”. For B2, the expression_or_secretion was “no change”. In the case of B3, the expression_or_secretion is reported as “no change”. For B4, the expression_or_secretion was “no change”. In the case of B5, the expression_or_secretion is reported as “no change”. With B6 the expression_or_secretion was “no change”. With B7 the expression_or_secretion was “no change”.

Same assay, conditions: glycan lost; control: wild type
For B8, the expression_or_secretion was “no change”.

Experiment: Michaelis-Menten kinetics, 60 °C, pH 4
Conditions: glycan gained; control: wild type
With B1 the “enzymatic_activity, kcat_Km” value was “increases, 74.65 ± 1.36 vs 62.06 ± 1.25; also recorded: increases, 192.43 ± 1.85 vs 138.46 ± 2.07”. With B2 the “enzymatic_activity, kcat_Km” value was “increases, 70.67 ± 1.74 vs 62.06 ± 1.25; also recorded: increases, 177.29 ± 1.47 vs 138.46 ± 2.07”. In the case of B4, the “enzymatic_activity, kcat_Km” value is reported as “increases, 83.49 ± 1.25 vs 62.06 ± 1.25; also recorded: increases, 198.76 ± 2.17 vs 138.46 ± 2.07”.

Same assay, conditions: glycan lost; control: wild type
For B8, the “enzymatic_activity, kcat_Km” value was “increases, 97.54 ± 2.13 vs 62.06 ± 1.25; also recorded: increases, 217.90 ± 2.83 vs 138.46 ± 2.07”.

Experiment: DNS reducing-sugar assay, 60 °C
Conditions: glycan gained; control: wild type
In the case of B1, the “enzymatic_activity, other: specific activity” value (from here on “enzymatic_activity, other”) is reported as “increases, 1.36 ± 0.06 vs 1.21 ± 0.08; also recorded: increases, 2.17 ± 0.08 vs 2.07 ± 0.14”. With B2 the “enzymatic_activity, other” value was “increases, 1.28 ± 0.10 vs 1.21 ± 0.08; also recorded: no change, 2.09 ± 0.15 vs 2.07 ± 0.14”. For B3, the “enzymatic_activity, other” value was “decreases, 0.91 ± 0.08 vs 1.21 ± 0.08; also recorded: decreases, 1.71 ± 0.11 vs 2.07 ± 0.14”. With B4 the “enzymatic_activity, other” value was “increases, 1.58 ± 0.12 vs 1.21 ± 0.08; also recorded: increases, 2.62 ± 0.13 vs 2.07 ± 0.14”.

Same assay, conditions: glycan lost; control: wild type
For B8, the “enzymatic_activity, other” value was “increases, 2.24 ± 0.18 vs 1.21 ± 0.08; also recorded: increases, 3.39 ± 0.21 vs 2.07 ± 0.14”.

Experiment: activity across pH 3-9
Conditions: glycan gained; control: wild type
With B1 the “other: optimal pH of activity” value was “no change”. In the case of B2, the “other: optimal pH of activity” value is reported as “no change”. With B3 the “other: optimal pH of activity” value was “no change”. For B4, the “other: optimal pH of activity” value was “no change”. For B5, the “other: optimal pH of activity” value was “no change”. In the case of B6, the “other: optimal pH of activity” value is reported as “no change”. For B7, the “other: optimal pH of activity” value was “no change”.

Same assay, conditions: glycan lost; control: wild type
For B8, the “other: optimal pH of activity” value was “no change”.

Experiment: activity at 30-90 °C
Conditions: glycan gained; control: wild type
For B1, the “other: optimal temperature of activity” value was “no change”. In the case of B2, the “other: optimal temperature of activity” value is reported as “no change”. For B3, the “other: optimal temperature of activity” value was “no change”. In the case of B4, the “other: optimal temperature of activity” value is reported as “no change”. In the case of B5, the “other: optimal temperature of activity” value is reported as “no change”. For B6, the “other: optimal temperature of activity” value was “no change”. In the case of B7, the “other: optimal temperature of activity” value is reported as “no change”.

Same assay, conditions: glycan lost; control: wild type
For B8, the “other: optimal temperature of activity” value was “no change”.

Experiment: thermal inactivation half-life at 80 °C
Conditions: glycan gained; control: wild type
For B1, the “stability_or_folding, half_life” value was “increases, 230 vs 150; also recorded: increases, 210 vs 130”. With B2 the “stability_or_folding, half_life” value was “decreases, 110 vs 150; also recorded: decreases, 100 vs 130”. In the case of B3, the “stability_or_folding, half_life” value is reported as “decreases, 130 vs 150; also recorded: decreases, 110 vs 130”. With B4 the “stability_or_folding, half_life” value was “increases, 190 vs 150; also recorded: increases, 160 vs 130”.

Same assay, conditions: glycan lost; control: wild type
In the case of B8, the “stability_or_folding, half_life” value is reported as “increases, 260 vs 150; also recorded: increases, 230 vs 130”.

Experiment: thermal inactivation half-life at 90 °C
Conditions: glycan gained; control: wild type
With B1 the “stability_or_folding, half_life” value was “increases, 55 vs 35; also recorded: increases, 45 vs 28”. For B2, the “stability_or_folding, half_life” value was “decreases, 20 vs 35; also recorded: decreases, 15 vs 28”. In the case of B3, the “stability_or_folding, half_life” value is reported as “decreases, 25 vs 35; also recorded: decreases, 20 vs 28”. In the case of B4, the “stability_or_folding, half_life” value is reported as “increases, 45 vs 35; also recorded: increases, 35 vs 28”.

Same assay, conditions: glycan lost; control: wild type
In the case of B8, the “stability_or_folding, half_life” value is reported as “increases, 65 vs 35; also recorded: increases, 50 vs 28”.

Experiment: residual activity after 200 min at 30-90 °C
Conditions: glycan gained; control: wild type
In the case of B1, the stability_or_folding is reported as “increases”. In the case of B2, the stability_or_folding is reported as “decreases”. With B3 the stability_or_folding was “decreases”. For B4, the stability_or_folding was “increases”.

Same assay, conditions: glycan lost; control: wild type
In the case of B8, the stability_or_folding is reported as “increases”.
